From FireProtDB (doi:10.1016/0022-2836(92)90906-z)

Settings: Bacillus amyloliquefaciens; pH 6.3; 25 °C; Urea; Fluorescence; MES 1.00 M; NaCl 613 mM; reversible: yes; whole UniProt chain shown

B1: Ribonuclease wild type, P00648 (protein)
chain: MMKMEGIALKKRLSWISVCLLVLVSAAGMLFSTAAKTETSSHKAHTEAQVINTFDGVADYLQTYHKLPDNYITKSEAQALGWVASKGNLADVAPGKSIGGDIFSNREGKLPGKSGRTWREADINYTSGFRNSDRILYSSDWLIYKTTDHYQTFTKIR
- denaturant m value: 1.93 kcal/mol/M
- denaturant midpoint (higher = more stable): 4.57 M
- unfolding free energy: 8.8 kcal/mol
